Assay [1] has as its target hMPV B2 F (human metapneumovirus).
The target is the same in assay [2]. Description: BLI, Fab in solution, His-tagged hMPV B2 F on anti-penta-HIS sensors. Background: BLI is a label-free optical method that tracks binding on a fibre tip over time.
Assay [3] has as its target hMPV 130-BV (human metapneumovirus). The assay is described as follows: BLI, Fab in solution, hMPV 130-BV on anti-penta-HIS sensors.
Assay [4] has the same target. The assay is described as follows: biolayer interferometry, hMPV 130-BV on anti-penta-HIS biosensors; unit inferred.

For orientation: Kd means the equilibrium constant for the complex coming apart. High values mean lower affinity, low ones higher affinity. What is called koff is the rate constant with which the complex falls apart. A high value points to a short-lived complex. As a reminder, the kon is the second-order rate constant of association.

B1: MPV314 Fab (Fab, V domains shown)
VH: QVQLVQSGGGVVQPGRSLRLSCAASGFSFSDYGMDWVRQAPGKGLEWVAVISYDGSNQYYADSVKGRFTVSRDNSKNTVYLQMNSLRAEDTAVYFCAKDESRRYYYSSGIHSHWGQGTLVTVSS
VL: DIVMTQSPATLSVSPGERATLSCRASQSVSRNLAWYQQKPGQAPRLLIFGASTRATGIPARFSGSASGTEFTLTISSLQSEDFAVYYCHQYNYWPPGTFGQGTRLEIK
In assay [1], B1 displayed a Kd of 4.4 nM, a koff of 0.0027 s⁻¹ and an association rate constant (kon) of 630000 M⁻¹ s⁻¹.

B2: MPV196 Fab (Fab, V domains shown)
VH: QVQLQQWGAGLLKPSETLSLTCAVYGGSFSGYSWTWIRQPPGKGLEWIGEINHSGSTNYNPSLKSRVTISIDTSRNQFSLKLISVTAADTAVYYCARGVRGGYNLWHFDVWGQGTLVTVSS
VL: SYELSQSPSVSVSPGQTARITCSGDKLGNKYASWYQQKPGQSPVLVIYQDDKRPSGIPERFSGSNSGNTATLTIGGTQAMDEADYSCQAWDGRTAVVFGGGTKLTVL
In assay [1], B2 gave an equilibrium dissociation constant (Kd) of 7.3 nM, a koff of 0.003 s⁻¹ and a kon of 410000 M⁻¹ s⁻¹.

B3: MPV364 Fab (Fab, V domains shown)
VH: QVQLVQSGAEVKKPGASVKVSCKASGYTFTHDSIHWVRQAPGQRLEWMGWINVGNGDTKSSQKFQDRLTITRDTSANTAYMEVRSLKYEDTAMYFCARVDQYCIGGVCYGGKNWFDPWGQGTLVTVSS
VL: SYELNQPPSVSVAPGQTAMITCGGYYVGVKSLHWYQQKAGQAPVLVVHDDSDRPSGIPERFSGSKSGDTATLIISRVEAGDEADYYCQVWDRDSDHPYVFGTGTTVTVL
In assay [1], B3 showed an equilibrium dissociation constant (Kd) of 70 nM, a koff of 0.0038 s⁻¹ and a kon of 61000 M⁻¹ s⁻¹. Also, the fold KD against MPV196 and MPV314 in assay [2] worked out at 10 fold.

B4: MPV458 Fab (Fab, V domains shown)
VH: QGKLVESGGGVIQPGRSLRLSCAASGFDFSRYGLHWVRQAPGKGLEWVAVIVYAGSNKYYADSVKGRFTISKDNSKNTMHLQMSDLRTEDTAVYYCARDQAFDLWGQGTMVTVSS
VL: DIQMTQSPASLSASVGDRVTITCQASQGISRSVNWYQQKPGKAPKLLIFDASHLERGVPSRFSGSGYGTDFTFTISSLQPEDIATYYCQQYDNLRISFGQGTRLEIK
The molecule B4 yielded a KD difference in logs against 101F Fab in assay [3] of 3 logs. The Kd in assay [4] was 0.075 nM.

The values are drawn from US20230085439A1.
